# B1: Glycosyltransferase (UGT) (SEQ ID NO: 46) Cicer arietinum (protein, listed as Cicer arietinum)
# chain: MKKIEVVFIPSPGVGHLISTLEFANLLINRNNRLNITVLVINFPKTVEKQTNYSLTESENLHVINLPQTTTHVPSTSDVGNSISALVETQKSNVKQAVSNLTGTLAAFVVDMFCTTMIDVANELGVPSLVFFTSGVAFLGLMLHLHTIWEQQDTELLLQQDELDIPSFANPVATNTLPTLVLRKEWESSFIKYGNGLKKASGIIVNSFHELEPHAVRSFLEDPTLRDLPIYPVGPILNPKSNVDSDDVIKWLDDQPPSSVVFLCFGSMGTFDEEQVREIALAIERSGVRFLWSLRKPQPQGTMVPPSDYTLSQMLEVLPEGFLDRTANIGRVIGWAPQVQVLAHQATGGFVSHCGWNSTLESIYYGVPIATWPLFAEQQTNAFELVRELKIAVEIALDYRLEFDIGRNYLLDADKIERGIRGVLDKDGEVRKKVKEMSQKSRNVLLEGGSSYTYLGQLIDYITNQV
# B2: CYP82D (SEQ ID NO: 40) Panax ginseng (protein)
# chain: METFLAQLYSTTTIAALFVLLVLYYFSPWTRINKKNVAPEAGGGWPIIGHLHLLGGSKLPHLVFGSMADKYGPIFTVRLGVQRSLVVSSWEMVKDIFTTNDVIVSGRPKFLAAKHLSYNYAMFGFSPYGSFWLELRKITSLQLLSNRRLELLKHVRVSEMEISMRQLYKLWSEKKNGSGRVLMDMKKWFGELNLNVTFRMVAGKRYFGGGAASNDEEARRCRRVVREFFRLLGVVVVADSLPFLRWLDLGGYERAMKETAREMDSIVSVWLEEHRIKSDSSGDDANMEQDFMDVMLSAVKNVDLCGFDAHTVIKATCMVIISSGTDTTTVELTWALCLLLNNRHVLKKAQEELDNVVGKQRRVKESDLNNLIYLQAIVKETLRLYPAGQLGGQREFSDDCTVGGYHVPKRTRLVVNLWKLHRDPRIWSDPTEFRPERFLERHKEIDVKGQHFELIPFGAGRRVCPGITFGLQMFHLVLASLLHGFDISTPSDAPVDMAEGAGLTNAKITPLEILIAPRLSPSLYE
# modifications: Panax ginseng
# B3: Glycosyltransferase (UGT) (SEQ ID NO: 42) Mates domestica (protein, listed as Malus domestica)
# chain: MKKVELVFIPSPGAGHHLPTLQFVKRLIDRNDRISITILAIQSYFPTTLSSYTKSIAASEPRIRFIDVPQPQDRPPQEMYKSRAQIFSLYIESHVPSVKKIITNLVSSSANSSDSIRVAALVVDLFCVSMIDVAKELNIPSYLFLTSNAGYLAFMLHLPILHEKNQIAVEESDPDWSIPGIVHPVPPRVLPAALTDGRLSAYIKLASRFRETRGIIVNTFVELETHAITLFSNDDRVPPVYPVGPVIDLDDGQEHSNLDQAQRDKIIKWLDDQPQKSVVFLCFGSMGSFGAEQVKEIAVGLEQSGQRFLWSLRMPSPKGIVPSDCSNLEEVLPDGFLERTNGKKGLICGWAPQVEILAHSATGGFLSHCGWNSILESLWHGVPIATWPMYAEQQLNAFRMVRELGMALEMRLDYKAGSADVVGADEIEKAVVGVMEKDSEVRKKVEEMGKMARKAVKDGGSSFASVGRFIEDVIGQN
# B4: Glycosyltransferase (UGT) (SEQ ID NO: 44) Lycium barbarum (protein)
# chain: MGHLVSTVEMAKQLVDREDQLSITVLIMTLPTETKIPSYTKSLSSNYTSRIRLLELTQPETSVNMGSATHPMKFMSEFITSYKGRVKDAVADMFSSLSSVKLAGFVIDMFCTAMIDVANDFGVPSYLFYTSGAAMLGLQFHFQSLISQNVLSYLDSESEVLIPTYINPVPVKFLPGLILDNDEYSIMFLDLAGRFKETKGIMVNTFVEVESHALKALSDDEKIPPIYPVGPILNLGGGNDGHGEEYDSIMKWLDGQPNSSVVFLCFGSMGSFEEDQVKEVANALESSGYQFLWSLRQPPPKDKLQFPSEFENLEEVLPEGFLQRTKGRGKMIGWAPQVAILSHPSVGGFVSHCGWNSTLESVRSGVPMATWPMYAEQQSNAFQLVKDLEMAVEIKMDYRKDFMTINQPVLVKAEEIGNGIRQLMDLVNKIRAKVRKMKEKSEAAIMEGGSSYVALGNFVETVMKS
# modifications: Depcits the amino acid sequence of Glycosyltransferase (UGT of Lycium barbarum)
# Test system: pathway specific substrates
# Assay: Enzyme functionality of pathway enzyme homologs and fusion constructs in lysed E. coli cell extracts, product by HPLC
# Assay type: biochemical, E. coli BL21
# Conditions: recombinant E. coli BL21 clone, lysed cell extract
# Protocol: As per one of the possible implementations of the present disclosure, two proteins—cinnamate-4-hydroxylate (C4H) and 4-coumaroyl CoA-ligase (4CL) were expressed as one fusion protein. Also, other two proteins which were expressed as one fusion protein were hydroxycinnamoyl-CoA quinate hydroxycinnamoyltransferase (HCT) and p-coumaroyl quinate 3′-hydroxylase (HCTC3H). The fusion gene and the corresponding fusion protein was prepared using the following method. […] The enzyme fusion constructs were made for the selected genes (Table 5). Pathway genes and the fusion constructs were individually cloned in E. coli expression vector pET28+ under T7 promoter and transformed in E. coli BL21 cells. Recombinant bacterial cells were induced with IPTG and enzyme functionality was tested with pathway specific substrates (Table 5) using lysed E. coli cell extracts. HPLC analysis was carried out to quantify the product formation and in turn shortlisting of efficient enzymes for functional pathway assembly towards Etoposide in E. coli.
# The E. coli transformants were grown overnight at 37° C. in 1 ml of M9 minimal media containing ampicillin (100 mg/1), in 96-well format. The next day, 150 μl of each culture was inoculated into 3 ml M9 minimal media containing ampicillin (100 mg/1), IPTG 0.1 mM in 24-well format, and incubated at 30° C. and 200 rpm for ˜20 hours. The following day, cells were spun down and pellets were resuspended in 100 μl of lysis buffer containing 10 mM Tris-HCl pH 8, 5 mM MgCl2, 1 mM CaCl2) and complete mini protease inhibitor EDTA-free (3 tablets/100 ml) (Hoffmann-La Roche, Basel, Switzerland) and frozen at −80° C. for at least 15 minutes to promote cell lysis. Pellets were thawed at room temperature and 50 μl of DNase mix (1 μl of 1.4 mg/ml DNase in H2O (˜80000 u/ml), 1.2 μl of MgCl2 500 mM and 47.8 μl of 4×PBS buffer solution) was added to each well. Plates were shaken at 500 rpm for 5 min at room temperature to allow degradation of genomic DNA. Plates were spun down at 4000 rpm for 30 min at 4° C. and six μl of the lysates were used in in vitro using appropriate substrates for enzymes as per Table 6. In each case, the resulting compounds were measured by HPLC. Results were analysed in comparison with the lysates expressing the corresponding controls (the empty plasmid). […]
# [1] = substrate tested: Desmethylepipodophyllotoxin
Molecule,Enzyme activity in terms of product formation (in %) [1] [%],Enzyme activity in terms of product formation (in %) (substrate tested: Deoxypodophyllotoxin) [%]
B1,97,–
B2,–,93
B3,54,–
B4,67,–

# From patent US11898183B2, “Programmed microorganisms to attenuate a disease” (priority 2020, dated 2024)
